According to patent US20210238279A1 (Johns Hopkins, published 2021):

T1: human ZnT10 with C-terminal FLAG tag (human, UniProt Q6XR72 1-485, limits assumed)
T1 construct: Commercial HEK293 lysate (Origene), SDS-denatured on immunoblots; not shown: C-terminal FLAG octapeptide
T1 sequence (looked up): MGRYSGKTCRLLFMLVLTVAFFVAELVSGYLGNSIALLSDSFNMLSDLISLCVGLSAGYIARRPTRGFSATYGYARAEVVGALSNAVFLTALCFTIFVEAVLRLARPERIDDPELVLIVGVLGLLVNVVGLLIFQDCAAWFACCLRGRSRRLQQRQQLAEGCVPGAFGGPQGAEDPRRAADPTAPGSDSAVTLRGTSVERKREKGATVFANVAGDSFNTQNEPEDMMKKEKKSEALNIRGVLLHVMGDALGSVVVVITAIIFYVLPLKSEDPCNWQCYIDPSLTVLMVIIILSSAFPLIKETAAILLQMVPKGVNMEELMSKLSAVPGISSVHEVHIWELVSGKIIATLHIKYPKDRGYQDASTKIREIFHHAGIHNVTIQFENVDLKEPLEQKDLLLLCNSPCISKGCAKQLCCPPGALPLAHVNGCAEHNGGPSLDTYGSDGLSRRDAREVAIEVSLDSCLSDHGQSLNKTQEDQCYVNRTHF

T2: human ZnT4 with C-terminal FLAG tag (human, UniProt O14863 1-429)
T2 construct: Commercial HEK293 lysate (Origene), SDS-denatured on immunoblots; not shown: C-terminal FLAG octapeptide
T2 sequence (looked up): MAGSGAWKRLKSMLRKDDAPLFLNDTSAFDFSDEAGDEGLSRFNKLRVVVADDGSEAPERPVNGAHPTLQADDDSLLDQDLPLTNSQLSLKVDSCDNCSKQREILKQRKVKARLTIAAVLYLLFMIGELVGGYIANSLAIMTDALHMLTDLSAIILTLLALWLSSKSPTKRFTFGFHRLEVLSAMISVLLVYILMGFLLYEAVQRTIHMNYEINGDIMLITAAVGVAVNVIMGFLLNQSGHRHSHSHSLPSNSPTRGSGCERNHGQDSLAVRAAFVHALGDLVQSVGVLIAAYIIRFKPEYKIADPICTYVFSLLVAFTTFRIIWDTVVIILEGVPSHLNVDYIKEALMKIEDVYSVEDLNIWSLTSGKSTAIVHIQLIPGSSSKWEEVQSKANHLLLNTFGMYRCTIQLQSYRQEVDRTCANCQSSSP

T3: mouse ZnT8-His (mouse, UniProt Q8BGG0 1-367, limits assumed)
T3 construct: Over-expressed in HEK293 cells, solubilized with DDM and immobilized on Ni-NTA plates, or SDS-denatured on immunoblots; not shown: C-terminal poly-histidine tag
T3 sequence (looked up): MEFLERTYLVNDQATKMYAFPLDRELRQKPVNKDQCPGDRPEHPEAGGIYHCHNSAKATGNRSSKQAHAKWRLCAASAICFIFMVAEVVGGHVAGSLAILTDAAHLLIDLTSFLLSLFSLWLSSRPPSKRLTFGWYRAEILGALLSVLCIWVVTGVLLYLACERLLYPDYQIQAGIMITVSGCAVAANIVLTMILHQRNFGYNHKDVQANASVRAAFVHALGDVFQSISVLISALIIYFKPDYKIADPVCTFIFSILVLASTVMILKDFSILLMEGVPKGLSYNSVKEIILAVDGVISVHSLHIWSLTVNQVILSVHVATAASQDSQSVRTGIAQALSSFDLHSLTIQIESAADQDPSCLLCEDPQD

B1: mAb20 (antibody, V domains shown)
VH: QIQLVQSGPELKKPGETVKISCKASGYIFTNYPMHWVKQAPGKGLKWMGWINTYSGVPTHADDFKGRFAFSLETSANSAFLQINNLKNEDTATYFCTRSRITPTGGYAMDYWGQGTSVTVSS
VL: DVVMTQTPLSLPVSLGDQASISCRSSQSLVHSNGNTYLHWYLQKPGQSPNLLISKVSNRFSGVPERFSGSGSGTDFTLKISRVEAEDLGVYFCSQNTHVPWTFGGGTKLEIKR
notes: Mouse hybridoma mAb purified on protein A/G; In some assays it was labelled with Alexa Fluor 488 or terbium cryptate; also called monoclonal antibody mAb20; anti-ZnT8 mAb20
B2: mAb39 (antibody, V domains shown)
VH: QVQLQQPGAELVKPGASVKLSCKASGYSFTTYWMHWVKQRPGQGLEWVGDINPRNGRTNYNEKSKSKATLTVDISSSTVYMQVSSLTSEDSAVYYCAIWSGAMDYWGPGTSVTVSS
VL: DVVMTQTPLSLPVSLGDQPSISCKSSQSLVHNNGNTYLHWYLQKPGQSPKLLIYKVSNRFSGVPDRFSGSGSGTDFTLKISRVEAEDLGVYFCSQTTHVPPTFGGGTKLEIKR
notes: Mouse hybridoma mAb purified on protein A/G; In some assays it was labelled with Alexa Fluor 555 or d2; also called monoclonal antibody mAb39; anti-ZnT8 mAb39

Assays:
[1] = target: T1, human ZnT10 with C-terminal FLAG tag; assay: immunoblot of HEK293 lysates over-expressing FLAG-tagged ZnT homologs
Text: (§1) FIG. 7A-7D. mAb binding specificities (FIG. 7A) mAb binding to ZnT8-His immobilized to Ni-NTA plate. Bound mAb20 (red) or mAb39 (magenta) was detected by an HRP-conjugated secondary antibody. Solid lines are least-squares fits of binding datapoints to a one-component binding process. Error bars are standard errors (n=8). (FIG. 7B) SDS-denatured mouse ZnT8-His (labeled as M) and human ZnT8-His (labeled as H) on immunoblots were detected by mAb20 or mAb39 as indicated. […] (FIG. 7C) Detection of endogenous human ZnT8 in EndoC-βH cells by mAb20 or […] immunoblotting. An equal amount of EndoC-βH lysate (5 μg total protein) was loaded to each lane. (FIG. 7D) Immunoblotting of HEK lysates with or with over-expression of a ZnT homolog as indicated. An approximately equal amount of total lysate protein (5 μg) was located to each lane, probed by either mAb20, mAb39, or anti-FALG antibody as indicated. FIG. 8. HTRF response to human ZnT8, mouse ZnT8 and human ZnT3.
(§2) Immunoblotting. SDS-solubilized cell lysate of EndoC-β cells or HEK293 cells over-expressing ZnT8 was subjected to SDS-PAGE and probed with a 1:3000 mAb20 or mAb39, followed by 1:3000 anti-mouse HRP-conjugated secondary antibody (GE Healthcare cat. #NA931V). A duplicated gel was Coomassie-stained to show an equal protein loading for each lane ([…]). To compare the mAb20 or mAb39 reactivities to different ZnT homolog, we used commercial HEK293 lysates with lentivirus-mediated over-expression of ZnT1, ZnT2, ZnT3, ZnT4, ZnT7, ZnT8, ZnT10, each is tagged by a Flag tag at the C-terminus (Origene, catalog nos. LY500001, LC412033, LC423751, LC401170, LY415673, LC428544, LC406320, and LC412886). Approximately equal amounts of total protein (5 μg) was loaded to each lane, and then probed with mAb20, mAb39, or anti-FLAG antibody (Origene, catalog no. TA50011-100) as above. The expression levels of ZnT homologs varied with ZnT1 most abundantly expressed.

[2] = target: T2, human ZnT4 with C-terminal FLAG tag; assay: as above
Text: as §1, §2

mouse ZnT8-His = target: T3, mouse ZnT8-His; assay: ELISA titration on mouse ZnT8-His immobilized on Ni-NTA plate; apparent binding affinity, one-component fit; DDM-solubilized mouse ZnT8 immobilized to Ni-NTA plate via His-tag; mAb titration
Text: as §1
Binding specificities. […] Of note, the epitope-masking effect of ZnT8 immobilization weakened the apparent binding affinities of both mAbs as compared to the affinities determined by flow-cytometry, and such a weakening effect was more pronounced for mAb39, probably due to a closer proximity of the mAb39 epitope to the C-terminal His-tag. Next, we compared the immunoreactivities of mAbs to denatured ZnT8.

Binder	binding result [1]	binding result [2]	Kd (mouse ZnT8-His) [nM]
B1	no binding	no binding	1420
B2	no binding	no binding	35.8
